Experimental findings from the supplement of paper PMC9732359 are described below.

± gives the uncertainty stated by the source.

This series is described as follows: protein stability index of a GFP-peptide fusion (yeast GPS) (PSI 1-4); higher = more stable; sorted into four equal gates, so the index is relative within each strain. An outline of the steps: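 For each peptide, the protein stability index sums the read frequency in every gate after multiplying it by the gate number. Read frequencies came from plasmids that were PCR-amplified from each gate and Illumina-sequenced, with reads assigned to strains by barcodes. The gates were four equal bins of GFP/Cherry fluorescence ratio applied to mid-log yeast in leucine-free medium carrying a pooled library of tiled 17-residue yeast protein peptides fused downstream of GFP on a Cherry-expressing plasmid.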

On to FQSQQRRKDTSMVLFFV [RPB9], for which the protein stability index runs as follows: (doa10∆) 1.55 ± 0.083; (pdr5∆) 1.57 ± 0.14; (san1∆) 1.62 ± 0.16; (ubr1∆) 1.46 ± 0.044.

For the sequence KDMSPILGELKRVKSYM [LRP1], the protein stability index (doa10∆) turned out to be 2.43 ± 0.062, the protein stability index (pdr5∆) is 2.74 ± 0.056, the protein stability index (san1∆) is 2.51 ± 0.059 and the protein stability index (ubr1∆) was 2.97 ± 0.038.

Regarding IIQNAQRDAVTLFCCLL [RPO21], the protein stability index was found to be 2.88 ± 0.053 (doa10∆), 2.54 ± 0.055 (pdr5∆), 2.53 ± 0.051 (san1∆) and 2.44 ± 0.046 (ubr1∆).

As to MAFNLLGLLTPEVVELC [FAS2], the protein stability index runs as follows: (doa10∆) 1.8 ± 0.085; (pdr5∆) 1.56 ± 0.12; (san1∆) 1.22 ± 0.22; (ubr1∆) 2.47 ± 0.12.

Consider VAQPDSLRETNTTDPLG [SIR2], for which the protein stability index reads like this: (doa10∆) 3.09 ± 0.17; (pdr5∆) 3.45 ± 0.17; (san1∆) 2.41 ± 0.12; (ubr1∆) 3.08 ± 0.14.

AHNPELERYVKRCMDDL [RPO31]: the protein stability index is, setting by setting: (doa10∆) 3.33 ± 0.062; (pdr5∆) 3.45 ± 0.062; (san1∆) 3.41 ± 0.037; (ubr1∆) 3.35 ± 0.04.

As for NRSWDHAYNITFNNQDK [RPO31], the protein stability index turned out to be 2.75 ± 0.073 (doa10∆), 2.82 ± 0.061 (pdr5∆), 2.7 ± 0.071 (san1∆) and 2.97 ± 0.042 (ubr1∆).

Consider QLLDTSNQRFKDLQWLE [SIN4], for which the protein stability index is, setting by setting: (doa10∆) 3.02 ± 0.066; (pdr5∆) 2.96 ± 0.076; (san1∆) 2.88 ± 0.06; (ubr1∆) 2.91 ± 0.043.

Take VDDVLETISAIEHPMTS [RPN1]: the protein stability index came out at 3.15 ± 0.13 (doa10∆), 3.2 ± 0.091 (pdr5∆), 2.79 ± 0.16 (san1∆) and 2.91 ± 0.083 (ubr1∆).

As for SKYFIIDSFFLYVLPSF [YMR129W/POM152], the protein stability index reads like this: (doa10∆) 1.55 ± 0.045; (pdr5∆) 1.65 ± 0.035; (san1∆) 1.75 ± 0.06; (ubr1∆) 1.23 ± 0.028.

The sequence ELEKKYHGNECEINYYE [SRB8] registered a protein stability index (doa10∆) of 3.04 ± 0.11, a protein stability index (pdr5∆) of 3.19 ± 0.086, a protein stability index (san1∆) of 3.26 ± 0.064 and a protein stability index (ubr1∆) of 3.17 ± 0.066.

DKLDDDGLIAPGVRVSG [RPB2] returned a protein stability index (doa10∆) of 1.65 ± 0.19, a protein stability index (pdr5∆) of 2.23 ± 0.1, a protein stability index (san1∆) of 2.48 ± 0.27 and a protein stability index (ubr1∆) of 1.71 ± 0.11.

Consider KIQASDVNIIGKDRIAI [RPO31], for which the protein stability index is, setting by setting: (doa10∆) 2.82 ± 0.11; (pdr5∆) 3.05 ± 0.098; (san1∆) 2.87 ± 0.087; (ubr1∆) 3.35 ± 0.081.

DSVLLNRGNKKRHRSSY [YML031W/NDC1] gave a protein stability index (doa10∆) of 3.03 ± 0.099, a protein stability index (pdr5∆) of 3.25 ± 0.1, a protein stability index (san1∆) of 3.04 ± 0.06 and a protein stability index (ubr1∆) of 3.15 ± 0.076.

For NEYVIKTPVFTTGGDYI [YMR129W/POM152], the protein stability index by setting is: (doa10∆) 1.88 ± 0.062; (pdr5∆) 2.07 ± 0.053; (san1∆) 1.91 ± 0.075; (ubr1∆) 1.99 ± 0.053.

Regarding TAPSSERRVLLSAPLSK [RPL26B], the protein stability index (doa10∆) was 1.86 ± 0.041, the protein stability index (pdr5∆) stood at 2.4 ± 0.044, the protein stability index (san1∆) was determined as 2.66 ± 0.062 and the protein stability index (ubr1∆) is 2.08 ± 0.044.

Regarding AHEISQGVYGAVYETLI [BRR2], the protein stability index by setting is: (doa10∆) 3.33 ± 0.082; (pdr5∆) 3.11 ± 0.07; (san1∆) 3.16 ± 0.061; (ubr1∆) 3.37 ± 0.082.

As for WLNGKMDSKGKITIGIQ [RGR1], the protein stability index reads like this: (doa10∆) 3.69 ± 0.12; (pdr5∆) 3.47 ± 0.21.

Consider VEIVNYNVENQQYVAAG [FAS1], for which the protein stability index was determined as 2.66 ± 0.17 (doa10∆) and 2.67 ± 0.18 (pdr5∆).

For the sequence DRVEDICERIFEQGQAL [RRI2], the protein stability index reads like this: (doa10∆) 2.72 ± 0.12; (pdr5∆) 3.02 ± 0.17; (san1∆) 3.18 ± 0.22.

With ESLPQYVDFVPMYKELW [POP4], the protein stability index runs as follows: (doa10∆) 2.12 ± 0.061; (pdr5∆) 2.45 ± 0.056; (san1∆) 2.5 ± 0.074; (ubr1∆) 2.64 ± 0.048.

For the sequence SLYKVSFLEKPKFAIQD [YMR129W/POM152], the protein stability index runs as follows: (doa10∆) 2.93 ± 0.11; (pdr5∆) 2.68 ± 0.12; (san1∆) 2.77 ± 0.071; (ubr1∆) 2.53 ± 0.13.

In the case of KVNSRDDSFFNETNDKK [PRP28], the protein stability index by setting is: (doa10∆) 2.82 ± 0.12; (pdr5∆) 3.1 ± 0.11; (san1∆) 3.04 ± 0.13; (ubr1∆) 2.94 ± 0.12.

With QKLMQLVVLTDVVERLH [RGR1], the protein stability index runs as follows: (doa10∆) 2.29 ± 0.072; (pdr5∆) 2.38 ± 0.049; (san1∆) 2.23 ± 0.091; (ubr1∆) 2.3 ± 0.035.

Consider SEEERKSSPISNEAAKP [YOR098C/NUP1], for which the protein stability index was found to be 2.94 ± 0.099 (doa10∆), 2.97 ± 0.099 (pdr5∆), 3.07 ± 0.069 (san1∆) and 3.21 ± 0.071 (ubr1∆).

For CFVHRYKDVSDLIRSES [IRR1], the protein stability index amounted to 2.67 ± 0.082 (doa10∆), 2.7 ± 0.061 (pdr5∆), 2.89 ± 0.056 (san1∆) and 2.89 ± 0.06 (ubr1∆).

RSTMMKFLKIASLKHDN [RPN3]: the protein stability index was determined as 2.18 ± 0.067 (doa10∆), 2.43 ± 0.072 (pdr5∆), 2.86 ± 0.089 (san1∆) and 3.01 ± 0.057 (ubr1∆).

As to ANARDFGEWAGMTKSNI [BRR2], the protein stability index runs as follows: (doa10∆) 2.28 ± 0.12; (pdr5∆) 2.82 ± 0.14; (san1∆) 1.55 ± 0.12; (ubr1∆) 2.37 ± 0.079.

Sequence PLLSKKERLVRDKKEKK [SMB1] gave a protein stability index (doa10∆) of 3.37 ± 0.24, a protein stability index (pdr5∆) of 3 ± 0.11, a protein stability index (san1∆) of 2.72 ± 0.18 and a protein stability index (ubr1∆) of 3.15 ± 0.17.

As for RKNYMHVKNFGFANSLT [YML031W/NDC1], the protein stability index is 1.18 ± 0.11 (doa10∆), 1.9 ± 0.11 (pdr5∆), 2.3 ± 0.14 (san1∆) and 2.85 ± 0.063 (ubr1∆).

For the sequence VSSPESEKNKRQSKSSG [ITC1], the protein stability index reads like this: (doa10∆) 3.03 ± 0.059; (pdr5∆) 3.17 ± 0.052; (san1∆) 2.98 ± 0.045; (ubr1∆) 3.14 ± 0.038.

The sequence VSVPVSGQKTNRQVMHK [SIR3] showed a protein stability index (doa10∆) of 2.58 ± 0.13, a protein stability index (pdr5∆) of 3.27 ± 0.14, a protein stability index (san1∆) of 3.05 ± 0.13 and a protein stability index (ubr1∆) of 2.86 ± 0.17.

Turning to FLLHNSEIIDTNTSKQF [SRB8], the protein stability index runs as follows: (doa10∆) 2.83 ± 0.086; (pdr5∆) 3.06 ± 0.069; (san1∆) 2.85 ± 0.055; (ubr1∆) 2.81 ± 0.044.

For the sequence GAQIVSKQIFTHPKDTF [ARP9], the protein stability index amounted to 2.23 ± 0.069 (doa10∆), 1.51 ± 0.051 (pdr5∆), 2.04 ± 0.067 (san1∆) and 1.68 ± 0.033 (ubr1∆).

Consider ADYNGALLRVTKSKNKT [POP4], for which the protein stability index by setting is: (doa10∆) 2.61 ± 0.066; (pdr5∆) 2.14 ± 0.058; (san1∆) 2.42 ± 0.077; (ubr1∆) 2.36 ± 0.053.

As to YISKAQNDQWSIQMEFM [SSN2], the protein stability index was found to be 2.79 ± 0.064 (doa10∆), 2.73 ± 0.071 (pdr5∆), 2.71 ± 0.059 (san1∆) and 3.04 ± 0.053 (ubr1∆).

On to LGTTEGDIKVLDSNFNL [RPN14], for which the protein stability index by setting is: (doa10∆) 3.02 ± 0.12; (pdr5∆) 3.11 ± 0.098; (san1∆) 3.03 ± 0.078; (ubr1∆) 3.26 ± 0.081.
